From patent publication US20030232420A1 (SEQUENOM, published 2003)
Ends that are not written are not given here.

Assays:
PKA-RIIα-GFP = target: T1, PKA-RIIα-GFP (UniProt P42212 1-238 = GFP); assay: SPOT membrane, anti-GFP detection
T1 construct: it may be the same construct as m8; also called PKA-RIIa-GFP
Protocol: Substitution analysis of both allelic peptides ([…]; SEQ ID NO:2 and […]; SEQ ID NO:1) was conducted. Each amino acid of the 27-mer peptide was substituted, one amino acid at a time per peptide, by any naturally occurring L- and D- amino acid. For both peptides complete L- and D- substitution analysis membranes have been screened for binding of PKA-RIα-GFP. After regeneration, the peptide arrays were incubated with PKA-RIIα-GFP. After binding, detection was carried out with an anti-GFP antibody in combination with a peroxidase-labeled secondary antibody.

[1] = target: T2, RIα isoform of the PKA regulatory subunit (Bos taurus (Bovine), UniProt P00514 2-380); assay: fluorescence anisotropy
T2 construct: also called R1α; PKA-RIα
T2 sequence (P00514 2-380 limits assumed): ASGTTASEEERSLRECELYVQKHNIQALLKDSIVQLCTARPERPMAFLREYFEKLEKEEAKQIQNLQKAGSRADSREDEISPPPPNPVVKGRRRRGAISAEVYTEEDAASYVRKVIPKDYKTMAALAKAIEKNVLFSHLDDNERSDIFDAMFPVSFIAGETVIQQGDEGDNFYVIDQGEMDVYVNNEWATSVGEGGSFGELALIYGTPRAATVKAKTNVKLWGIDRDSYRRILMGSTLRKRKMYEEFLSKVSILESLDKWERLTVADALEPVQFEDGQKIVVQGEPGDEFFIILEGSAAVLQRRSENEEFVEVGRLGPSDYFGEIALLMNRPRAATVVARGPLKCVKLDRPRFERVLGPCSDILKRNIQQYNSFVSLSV

Full-length murine RIIα [2] = target: T3, Full-length murine RIIα (murine, UniProt P12367 2-401); assay: fluorescence anisotropy, labeled peptide
T3 construct: mature; given as full-length
T3 sequence (P12367 2-401): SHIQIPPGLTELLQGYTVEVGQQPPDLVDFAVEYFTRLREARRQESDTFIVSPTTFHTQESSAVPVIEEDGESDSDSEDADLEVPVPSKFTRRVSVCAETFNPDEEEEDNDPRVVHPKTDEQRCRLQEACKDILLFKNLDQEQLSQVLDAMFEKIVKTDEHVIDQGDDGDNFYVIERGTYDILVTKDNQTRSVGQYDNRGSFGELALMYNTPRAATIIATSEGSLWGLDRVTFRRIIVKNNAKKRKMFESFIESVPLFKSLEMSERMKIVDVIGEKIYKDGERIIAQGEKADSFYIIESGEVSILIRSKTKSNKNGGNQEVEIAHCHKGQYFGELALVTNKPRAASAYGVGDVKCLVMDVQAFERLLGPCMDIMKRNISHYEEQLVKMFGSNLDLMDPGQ
Protocol: (§1) Binding of each fluorescently labeled peptide to the regulatory subunits was monitored using fluorescence anisotropy. RIα and RIIα were serially diluted beginning at 1 μM and 0.1 μM, respectively, into 10 mM HEPES pH 7.4, 0.15 M NaCl, 3 mM EDTA, 0.005% Surfactant P20 (Biacore) containing either 10 nM or 1 nM of fluorescently labeled peptide for RIα and RIIα, respectively. The samples were equilibrated for at least 1 hour at room temperature and fluorescence anisotropy monitored using a Fluoromax-2 (Jobin Yvon Horiba, SPEX Division, Edison, N.J.) equipped with Glan-Thompson polarizers. The rhodamine-labeled peptide was excited at 541 nm (5-10 nm bandpass) and emission monitored at 575 nm (5-10 nm bandpass). The anisotropy was calculated directly with the Fluoromax software using the following equation: […]
(§2) Several additional truncated and substituted peptides were synthesized and their affinity to RIα and RIIα evaluated using fluorescence anisotropy (see Table 8). Binding was evaluated for both RIα and RIIα0 using fluorescence anisotropy as described herein. Substituted residues are in bold Table 8. Tryptophan at a position corresponding to residue 21 of SEQ ID NO:2 is important for discriminating against binding to the RIIα subunit.

Full-length bovine RIα [3] = target: T4, Full-length bovine RIα (bovine, UniProt P00514 1-380); assay: fluorescence anisotropy, labeled peptide
T4 construct: mature; given as full-length
T4 sequence (P00514 whole entry): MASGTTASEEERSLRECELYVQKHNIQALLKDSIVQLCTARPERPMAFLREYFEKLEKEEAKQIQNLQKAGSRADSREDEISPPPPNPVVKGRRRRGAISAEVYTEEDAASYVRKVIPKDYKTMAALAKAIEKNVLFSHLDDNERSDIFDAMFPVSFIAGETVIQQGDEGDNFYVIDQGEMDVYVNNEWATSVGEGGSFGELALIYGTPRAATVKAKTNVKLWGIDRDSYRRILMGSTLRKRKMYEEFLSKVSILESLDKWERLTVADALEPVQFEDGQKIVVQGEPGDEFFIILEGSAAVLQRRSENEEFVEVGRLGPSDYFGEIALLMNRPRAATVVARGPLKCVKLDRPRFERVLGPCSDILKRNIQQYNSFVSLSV
Protocol: as §1, §2

Full-length murine RIIα [4] = target: T3, Full-length murine RIIα; assay: fluorescence anisotropy, labeled peptide, n = 3
Protocol: as §1
(§3) The binding affinities of three peptides designated RIIα-specific (A13L; SEQ ID NO:109), RIα-specific (Q9F, V21W, and M25F; SEQ ID NO:103) and null (A17E and V21W; SEQ ID NO:110) were compared with the unsubstituted peptide (FIG. 2 and Table 7) using fluorescence anisotropy. […] The null peptide bound very poorly to RIα and binding to RIIα could not be detected (FIG. 2).

Full-length bovine RIα [5] = target: T4, Full-length bovine RIα; assay: fluorescence anisotropy, labeled peptide, n = 3
Protocol: as §1, §3

Full-length bovine RIα [6] = target: T4, Full-length bovine RIα; assay: fluorescence anisotropy, labeled peptide with increasing full-length RIα; the concentration on the axis is that of the protein
Protocol: as §1, §3

Full-length murine RIIα [7] = target: T3, Full-length murine RIIα; assay: fluorescence anisotropy, labeled peptide with increasing full-length RIIα; the concentration on the axis is that of the protein
Protocol: as §1, §3

Full-length bovine RIα [8] = target: T4, Full-length bovine RIα; assay: fluorescence anisotropy
GFP-RIα D/D = target: T5, GFP-RIα D/D (bovine, UniProt P00514 1-109); assay: SPOT peptide array, anti-GFP detection
T5 construct: range 1-109; His tag cleaved with thrombin; also called dimerization/docking (D/D) domain of bovine RIα (residues 1-109) fused to GFP; not shown: green fluorescent protein (GFP)
T5 sequence (P00514 1-109): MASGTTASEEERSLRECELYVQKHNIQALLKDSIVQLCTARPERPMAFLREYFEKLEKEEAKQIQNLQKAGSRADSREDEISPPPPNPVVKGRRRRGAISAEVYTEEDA

GFP-RIIα D/D = target: T6, GFP-RIIα D/D (mouse, UniProt P12367 1-46); assay: SPOT peptide array, anti-GFP detection
T6 construct: range 1-46; His tag cleaved with thrombin; also called GFP-RII D/D; D/D domain of mouse RIIα (residues 1-46) fused to GFP; not shown: green fluorescent protein (GFP)
T6 sequence (P12367 1-46): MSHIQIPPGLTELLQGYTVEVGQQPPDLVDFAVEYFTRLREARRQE

| Binder | fold signal intensity against PKA-RIα-GFP (PKA-RIIα-GFP) | Kd (Full-length murine RIIα [2]) | Kd (Full-length bovine RIα [3]) | Kd (Full-length murine RIIα [4]) | Kd (Full-length bovine RIα [5]) | EC50 (read off the curve) (Full-length bovine RIα [6]) | EC50 (read off the curve) (Full-length murine RIIα [7]) | also measured |
| --- | --- | --- | --- | --- | --- | --- | --- | --- |
| VQGNTDEAQEELAWKIAKMIVSDVMQQ (also: cellulose-bound, also called Val variant 27-mer; V24 peptide) [VQGNTDEAQEELAWKIAKMIVSDVMQQ (SEQ ID NO:2), cellulose-bound] | ~10 fold | – | – | – | – | – | – | – |
| VQGNTDEAQEELAWKIAKMIVSDVMQQC(tetramethylrhodamine‑5‑maleimide)-NH2 (also called unsubstituted peptide) [AKB (dual), WT (SEQ ID NO:108) VQGNTDEAQEELAWKIAKMIVSDVMQQC, rhodamine-labeled] | – | 2.2 nM | 48 nM | 2.2 nM | 48 nM | ~50 nM | ~3 nM | fold increase in binding affinity against the Ile variant [1]: ~3 fold |
| VQGNTDEAQEELLWKIAKMIVSDVMQQC(tetramethylrhodamine‑5‑maleimide)-NH2 (also called RIIα-specific (A13L)) [AKB (RII), RII specific (SEQ ID NO:109) VQGNTDEAQEELLWKIAKMIVSDVMQQC, rhodamine-labeled] | – | – | – | 2.7 nM | 2490 nM | – | ~3 nM | – |
| VQGNTDEAQEELAWKIEKMIWSDVMQQC(tetramethylrhodamine‑5‑maleimide)-NH2 (also called null peptide (A17E and V21W)) [AKB (null) (SEQ ID NO:110) VQGNTDEAQEELAWKIEKMIWSDVMQQC, rhodamine-labeled] | – | – | – | > 10000 nM | 998 nM | – | – | – |
| FEELAWKIAKMIWSDVFQQC(tetramethylrhodamine‑5‑maleimide)-NH2 (also called PV-38; RIα-specific (Q9F, V21W, M25F)) [AKB (RI), RI specific (SEQ ID NO:103) FEELAWKIAKMIWSDVFQQC, rhodamine-labeled] | – | 456 nM | 5.2 nM | 456 nM | 5.2 nM | ~10 nM | ~500 nM | fold enhancement of binding against the unsubstituted peptide (Full-length bovine RIα [8]): 10 fold |
| VQGNTDEAQEELAWKIAKMIVSDIMQQ (also: cellulose-bound, also called Ile variant 27-mer; I24 peptide) [VQGNTDEAQEELAWKIAKMIVSDIMQQ (SEQ ID NO:1), cellulose-bound] | ~10 fold | – | – | – | – | – | – | binding result (GFP-RIα D/D): binds; binding result (GFP-RIIα D/D): binds |
